Data: EP4705353A2 (dated 2026)

Experiments:
[1] = biological target: T1, full length human B7H3 expressed on CHOK1 cells (human, UniProt Q5ZPR3 29-534); test: FACS, VH titrated with or without 20 nM Enoblituzumab as competitor
T1 construct: whole, on cells; also called B7H3/CHOK1; B7H3/CHOK1 full length; not shown: C-terminal flag and Myc tags from the pCMV6-Entry vector
T1 sequence (looked up): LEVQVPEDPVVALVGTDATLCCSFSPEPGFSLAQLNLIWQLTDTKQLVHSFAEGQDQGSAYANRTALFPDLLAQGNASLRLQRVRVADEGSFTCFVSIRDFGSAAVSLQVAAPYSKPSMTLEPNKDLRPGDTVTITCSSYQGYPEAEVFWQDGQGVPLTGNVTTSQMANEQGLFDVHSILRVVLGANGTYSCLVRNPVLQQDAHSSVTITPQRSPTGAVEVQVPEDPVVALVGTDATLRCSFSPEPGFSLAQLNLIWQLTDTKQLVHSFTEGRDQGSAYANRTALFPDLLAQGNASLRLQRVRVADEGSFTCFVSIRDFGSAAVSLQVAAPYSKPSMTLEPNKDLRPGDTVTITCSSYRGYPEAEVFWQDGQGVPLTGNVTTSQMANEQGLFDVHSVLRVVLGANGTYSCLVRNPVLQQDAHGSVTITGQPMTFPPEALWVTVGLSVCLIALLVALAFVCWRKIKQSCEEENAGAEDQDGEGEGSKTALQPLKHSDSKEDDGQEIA

[2] = biological target: T2, human B7H3-Fc recombinant protein (human, UniProt Q5ZPR3 29-466, limits assumed); test: ELISA, human B7H3-Fc coated at 2 ug/mL, anti-Flag HRP detection; footnote of Table 5: NA: low binding to B7H3 protein
T2 construct: Recombinant Fc fusion; also called human B7H3-Fc (full length); B7H3 recombinant protein; not shown: Fc part
T2 sequence (looked up): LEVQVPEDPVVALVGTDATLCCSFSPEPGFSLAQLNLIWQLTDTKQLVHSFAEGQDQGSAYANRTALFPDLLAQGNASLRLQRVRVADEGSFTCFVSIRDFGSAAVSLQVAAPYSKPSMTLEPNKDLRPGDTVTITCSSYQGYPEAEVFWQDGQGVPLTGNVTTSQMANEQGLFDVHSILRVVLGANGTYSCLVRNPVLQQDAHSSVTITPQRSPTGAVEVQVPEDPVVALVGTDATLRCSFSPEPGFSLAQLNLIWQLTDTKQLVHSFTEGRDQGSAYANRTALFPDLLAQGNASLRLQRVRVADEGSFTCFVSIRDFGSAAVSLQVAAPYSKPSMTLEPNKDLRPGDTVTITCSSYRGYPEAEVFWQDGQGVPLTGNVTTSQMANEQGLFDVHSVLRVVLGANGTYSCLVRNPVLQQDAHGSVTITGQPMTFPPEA

B1: BH-01 anti-B7H3 VH antibody (VHH)
VHH: QVTLKESGPTVVNPTQTLTLTCTFSGFSLTTSPVGVGWLRQPPGQALEWLALIYWDDDKRYSPSLKSRLTITKNTSRNQVVLTMMNMDPVDTATYYCAHRVYYTGNWDGGSFDYWGQGTLVTVSS
notes: Human heavy chain-only (VH) antibody made in E. coli with a C-terminal flag and 6xHis tag; also called BH-1; not shown: C-terminal flag and 6xHis tag
- binding result [1]: binds

B2: BH-03 anti-B7H3 VH antibody (VHH)
VH: QVQLVESGGGVVQPGRSPRLSCAASGFTFSSYAMHWVRQAPGKGLEWVAVISYDGSNKYYADSVKGRFTISRDNSKNTLYLQMNSLRAEDTAVYYCARDLARLVAGLDYWGQGTLVTVSS
notes: Human heavy chain-only (VH) antibody made in E. coli with a C-terminal flag and 6xHis tag; not shown: C-terminal flag and 6xHis tag
- binding result [2]: binds
- binding result [1]: binds
